Measurements reported in patent US20250170255A1 (Daiichi Sankyo, published 2025).
Blank lines part the entries; values can stand above or below the binder they belong to.

What was measured:
[1] = target: T1, biotinylated human TROP2 antigen (human, UniProt P09758 27-274, C-terminal Avi tag sequence biotinylated); assay: ELISA, immobilised biotinylated human TROP2 antigen, anti-FLAG-HRP detection; without MMP1
T1 construct: extracellular domain
T1 sequence (looked up): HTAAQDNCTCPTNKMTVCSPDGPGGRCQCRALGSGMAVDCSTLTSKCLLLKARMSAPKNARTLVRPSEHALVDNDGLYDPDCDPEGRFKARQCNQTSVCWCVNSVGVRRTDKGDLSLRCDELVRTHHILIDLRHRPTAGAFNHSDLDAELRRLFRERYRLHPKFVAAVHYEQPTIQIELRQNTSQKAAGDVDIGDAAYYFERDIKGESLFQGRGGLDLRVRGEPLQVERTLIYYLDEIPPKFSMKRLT
Description: (§1) NeutrAvidin (Thermo Fisher Scientific) diluted to 1 μg/ml with PBS was added at 50 μl/well to a 96-well Maxi-sorp plate (Black, Nunc) and immobilized at 4° C. overnight. The plate was washed with PBS containing 0.05% (w/v) Tween-20 (BioRad) (ELISA buffer) and then blocked with Blocker Casein (Thermo Fisher Scientific). The plate was washed with ELISA buffer, the biotinylated human TROP2 antigen (Accession Number: P09758; the extracellular domain was purified by the method known to a person skilled in the art and the C-terminal Avi tag sequence was then biotinylated) diluted to 1 μg/ml with PBS was added at 50 μl/well, and the resultant was then agitated for 30 minutes at room temperature. […] The plate was washed with ELISA buffer, the SuperSignal Pico ELISA chemiluminescent substrate (Thermo Fisher Scientific) was added, and chemiluminescence 10 minutes thereafter was then assayed using a plate reader.
(§2) The resultant was then added to the plate comprising the human TROP2 antigen immobilized thereon at 50 μl/well. The bound scFv was detected using the HRP-labeled anti-FLAG antibody (Sigma-Aldrich) diluted to 5,000-fold with ELISA buffer.

[2] = target: T1, biotinylated human TROP2 antigen; assay: ELISA, immobilised biotinylated human TROP2 antigen, anti-FLAG-HRP detection; after MMP1 pre-treatment
Description: as §1, §2

[3] = target: T1, biotinylated human TROP2 antigen; assay: ELISA, immobilised biotinylated human TROP2 antigen, anti-FLAG-HRP detection; without MMP1; remark: listed apart in the source
Description: as §1, §2

[4] = target: T1, biotinylated human TROP2 antigen; assay: ELISA, immobilised biotinylated human TROP2 antigen, anti-FLAG-HRP detection; after MMP1 pre-treatment; remark: listed apart in the source
Description: as §1, §2

[5] = target: T1, biotinylated human TROP2 antigen; assay: ELISA, immobilised biotinylated human TROP2 antigen, chemiluminescence; without uPA
Description: (§3) NeutrAvidin (Thermo Fisher Scientific) diluted to 1 μg/ml with PBS was added at 50 μl/well to a 96-well Maxi-sorp plate (Black, Nunc) and immobilized at 4° C. overnight. The plate was washed with PBS containing 0.05% (w/v) Tween-20 (BioRad) (ELISA buffer) and then blocked with Blocker Casein (Thermo Fisher Scientific). The plate was washed with ELISA buffer, the biotinylated human TROP2 antigen (Accession Number: P09758; the extracellular domain was purified by the method known to a person skilled in the art and the C-terminal Avi tag sequence was then biotinylated) diluted to 1 μg/ml with PBS was added at 50 μl/well, and the resultant was then agitated for 30 minutes at room temperature. […] The plate was washed with ELISA buffer, 50 μl of the horseradish peroxidase (HRP)-labeled anti-human IgG antibody (Jackson Immuno Research Laboratories) diluted to 2,500-fold with ELISA buffer was added, and the resultant was then agitated for 30 minutes at room temperature. The plate was washed with ELISA buffer, the SuperSignal Pico ELISA chemiluminescent substrate (Thermo Fisher Scientific) was added, and chemiluminescence 10 minutes thereafter was then assayed using a plate reader.

[6] = target: T1, biotinylated human TROP2 antigen; assay: ELISA, immobilised biotinylated human TROP2 antigen, chemiluminescence; after uPA pre-treatment (mask linker cleaved)
Description: as §3

[7] = target: T1, biotinylated human TROP2 antigen; assay: ELISA with and without uPA
[8] = target: T1, biotinylated human TROP2 antigen; assay: ELISA, immobilised biotinylated human TROP2 antigen, chemiluminescence; pH 5.5
Description: (§4) The plate was washed with PBS containing 0.05% (w/v) Tween-20 (BioRad) (ELISA buffer) and then blocked with Blocker Casein (Thermo Fisher Scientific). The plate was washed with ELISA buffer, the biotinylated human TROP2 antigen (Accession Number: P09758; the extracellular domain was purified by the method known to a person skilled in the art and the C-terminal Avi tag sequence was then biotinylated) diluted to 1 μg/ml with PBS was added at 50 μl/well, and the resultant was then agitated for 30 minutes at room temperature. […] The plate was washed with ELISA buffer, 50 μl of the horseradish peroxidase (HRP)-labeled anti-human IgG antibody (Jackson Immuno Research Laboratories) diluted to 2,500-fold with ELISA buffer was added, and the resultant was then agitated for 30 minutes at room temperature. The plate was washed with ELISA buffer, the SuperSignal Pico ELISA chemiluminescent substrate (Thermo Fisher Scientific) was added, and chemiluminescence 10 minutes thereafter was then assayed using a plate reader. […]

[9] = target: T1, biotinylated human TROP2 antigen; assay: ELISA, immobilised biotinylated human TROP2 antigen, chemiluminescence; pH 7.5
[10] = target: T1, biotinylated human TROP2 antigen; assay: as above; remark: listed apart in the source
[11] = target: T1, biotinylated human TROP2 antigen; assay: ELISA, immobilised biotinylated human TROP2 antigen, chemiluminescence; pH 6.0
[12] = target: T1, biotinylated human TROP2 antigen; assay: ELISA, immobilised biotinylated human TROP2 antigen, chemiluminescence; pH 5.5; remark: listed apart in the source
Description: as §4

[13] = target: T1, biotinylated human TROP2 antigen; assay: ELISA, immobilised biotinylated human TROP2 antigen, chemiluminescence; pH 7.5; remark: listed apart in the source
[14] = target: T1, biotinylated human TROP2 antigen; assay: ELISA, immobilised biotinylated human TROP2 antigen, chemiluminescence; pH 5.5; remark: listed apart in the source

B2: HT1-11-scFv-HL (scFv)
scFv: ADVNSQVQLVQSGAEVKKPGASVKVSCKASGYTFTTAGMQWVRQAPGQGLEWMGWINTHSGVPKYAEDFKGRVTISADTSTSTAYLQLSSLKSEDTAVYYCARSGFGSSYWYFDVWGQGTLVTVSSGGGGSGGGGSGGGGSDIQMTQSPSSLSASVGDRVTITCKASQDVSTAVAWYQQKPGKAPKLLIYSASYRYTGVPSRFSGSGSGTDFTLTISSLQPEDFAVYYCQQHYITPLTFGQGTKLEIKRGAPSGDYKDDDDKGAAAHHHHHH
notes: Unmasked scFv (VH-VL) expressed in E. coli, purified by Ni Sepharose; Full-length entry
- EC50 (read off the curve) [3]: ~5 nM
- EC50 (read off the curve) [4]: ~5 nM

B4: anti-TROP2 masked antibody MHT1808 (antibody)
heavy: not shown
light: DIQMTQSPSSLSASVGDRVTITCKASQDVSTAVAWYQQKPGKAPKLLIYSASYRYTGVPSRFSGSGSGTDFTLTISSLQPEDFAVYYCQQHYITPLTFGQGTKLEIKRTVAAPSVFIFPPSDEQLKSGTASVVCLLNNFYPREAKVQWKVDNALQSGNSQESVTEQDSKDSTYSLSSTLTLSKADYEKHKVYACEVTHQGLSSPVTKSFNRGEC
notes: His cluster linker; Full-length entries
- EC50 (read off the curve) [8]: ~2 nM
- EC50 (read off the curve) [9]: ~50 nM
- EC50 (read off the curve) [10]: ~30 nM
- EC50 (read off the curve) [11]: ~4 nM
- EC50 (read off the curve) [12]: ~1 nM
- EC50 (read off the curve) [13]: ~20 nM
- EC50 (read off the curve) [14]: ~1 nM

The remaining lines, values ahead:

- EC50 (read off the curve) [1]: ~3 nM
- EC50 (read off the curve) [2]: ~3 nM
B1: HT1-11-scFv-LH (scFv)
scFv: ADVNSDIQMTQSPSSLSASVGDRVTITCKASQDVSTAVAWYQQKPGKAPKLLIYSASYRYTGVPSRFSGSGSGTDFTLTISSLQPEDFAVYYCQQHYITPLTFGQGTKLEIKRGGGGSGGGGSGGGGSQVQLVQSGAEVKKPGASVKVSCKASGYTFTTAGMQWVRQAPGQGLEWMGWINTHSGVPKYAEDFKGRVTISADTSTSTAYLQLSSLKSEDTAVYYCARSGFGSSYWYFDVWGQGTLVTVSSGAPSGDYKDDDDKGAAAHHHHHH
notes: Unmasked scFv (VL-VH) expressed in E. coli; Full-length entry

- EC50 (read off the curve) [5]: ~90 nM
- EC50 (read off the curve) [6]: ~1 nM
- EC50 ratio of binding intensity (without uPA / with uPA) [7]: 83
B3: anti-TROP2 masked antibody MHT1009 (antibody)
heavy: not shown
light: B4 light
notes: Full-length entries
